We go through five molecules from paper PMC9128377.

What all share (test): fluorescence anisotropy
(In general: Polarisation of emitted light reports the rotation of a fluorescent probe.)

The target of data set [1] is T1, U2AF2 12L (RRM1-RRM2) (UniProt P26368 141-342).
Data set [2] has as its target T2, U2AF2 12L G297D (UniProt P26368 141-342, G297D).
Data set [3] concerns the target T1, U2AF2 12L (RRM1-RRM2). This is another data set of the same source.
Data set [4] addresses U2AF2 12L K225N (UniProt P26368 141-342, K225N).
The target in data set [5] is U2AF2 12L R227N (UniProt P26368 141-342, R227N).
In data set [6] the target is T2, U2AF2 12L G297D. This is another data set of the same source.
Data set [7] addresses T1, U2AF2 12L (RRM1-RRM2). This is another data set of the same source.

Read-outs that look alike come from different tables or passages of the source.

T2 sequence (P26368 141-342 G297D): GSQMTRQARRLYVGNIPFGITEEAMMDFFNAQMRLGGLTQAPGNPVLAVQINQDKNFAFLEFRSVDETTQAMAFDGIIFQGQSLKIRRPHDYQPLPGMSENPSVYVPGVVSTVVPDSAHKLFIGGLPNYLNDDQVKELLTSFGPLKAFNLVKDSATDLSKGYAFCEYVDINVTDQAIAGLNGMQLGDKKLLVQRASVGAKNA
T1 sequence (P26368 141-342): as the sequence (P26368 141-342 G297D) above, with D157G counted along it
Sequence of U2AF2 12L K225N (P26368 141-342 K225N): as the sequence (P26368 141-342 G297D) above, with K85N, D157G counted along it
Sequence of U2AF2 12L R227N (P26368 141-342 R227N): as the sequence (P26368 141-342 G297D) above, with R87N, D157G counted along it

UUUGUUUUU (ssRNA) [U9 G4] returned a binding signal in data set [1] of roughly 3 fold Kd increase vs N5.
Molecule UUUUCUUUU (ssRNA) [U9 C5] gave a binding signal in data set [2] of roughly 2 fold penalty. Further, in data set [3], the binding result was “binds”.
As to UUUUGUUUU (ssRNA) [U9 G5], the binding signal was greater than 5 fold penalty in data set [4], greater than 5 fold penalty in data set [5], roughly 2 fold penalty in data set [6] and less than 2 fold Kd increase vs N5 in data set [7].
Molecule UUUUUGUUU (ssRNA) [U9 G6] displayed a binding signal in data set [1] of roughly 3 fold Kd increase vs N5.
As to UUUUAUUUU (ssRNA) [U9 A5], the binding signal is greater than 5 fold penalty in data set [4], greater than 5 fold penalty in data set [5] and roughly 2 fold penalty in data set [6].
